From patent US20030232742A1, “FAP-activated anti-tumor compounds” (priority 2000, published 2003)
*1 amine or outer side, *2 acyl side, *3 side chain or, on linkers, in order; H or OH if unused. Where no end group is shown, it is not given here. [ ]: non-standard residue; d: D form. The star is where a group is joined. morpholino‑(ethyloxycarbonyl) = morpholino-(ethyloxycarbonyl) N-terminal blocking group, O=C(OCCN1CCOCC1)*; NH(4-MeO-2-naphthyl) = COc1cc(N*)cc2ccccc12; Glutaryl = O=C(CCCC(=O)[*:2])[*:1]; Suc = O=C(CCC(=O)[*:2])[*:1]; 4Amb = NCc1ccc(C(=O)O)cc1; NMeA = CN[C@@H](C)C(=O)O

What was measured:
FAPα dimers = molecular target: T1, FAPα dimers (Homo sapiens, UniProt Q12884); conditions: membrane overlay assay, WO 97/34927; cited from earlier work
T1 sequence (Q12884 1-760): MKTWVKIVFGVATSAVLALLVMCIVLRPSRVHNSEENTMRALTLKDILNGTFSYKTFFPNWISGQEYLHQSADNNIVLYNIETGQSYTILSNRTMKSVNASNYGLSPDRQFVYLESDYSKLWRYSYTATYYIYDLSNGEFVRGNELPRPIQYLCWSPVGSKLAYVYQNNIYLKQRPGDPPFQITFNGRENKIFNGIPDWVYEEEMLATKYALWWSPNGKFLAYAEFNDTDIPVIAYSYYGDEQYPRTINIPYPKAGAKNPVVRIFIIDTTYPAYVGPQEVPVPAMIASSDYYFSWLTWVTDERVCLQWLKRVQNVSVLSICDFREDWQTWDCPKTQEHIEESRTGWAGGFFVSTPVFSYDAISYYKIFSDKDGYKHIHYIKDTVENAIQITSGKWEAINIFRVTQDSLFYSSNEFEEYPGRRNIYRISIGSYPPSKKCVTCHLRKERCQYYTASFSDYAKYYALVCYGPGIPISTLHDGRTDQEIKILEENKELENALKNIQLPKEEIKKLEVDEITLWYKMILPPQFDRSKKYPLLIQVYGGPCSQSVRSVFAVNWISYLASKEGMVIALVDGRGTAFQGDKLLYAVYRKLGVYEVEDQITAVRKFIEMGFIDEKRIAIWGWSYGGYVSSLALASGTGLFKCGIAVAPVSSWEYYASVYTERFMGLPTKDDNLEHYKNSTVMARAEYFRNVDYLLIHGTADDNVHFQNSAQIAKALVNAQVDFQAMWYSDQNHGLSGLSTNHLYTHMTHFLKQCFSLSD

FAP = molecular target: T2, FAP (Homo sapiens, UniProt Q12884); test: Assay for cleavage of MNA substrates by FAP; format: biochemical; conditions: 1 ng FAP enzyme in 293 cell extract, 20 μl 2.5 mM substrate (a few diluted further), room temperature 1 hour, control 293 extract subtracted
T2 construct: Cell extract from 293 cells stably transfected with FAP prepared as described; expressed in transfected cells; detergent extract used
T2 sequence (Q12884 1-760): T1 sequence (Q12884 1-760)
From the text: To identify preferred FAPα peptide substrates, blocked oligopeptides composed of natural amino carboxylic acids were synthesized and coupled to Proline-4-methoxy-β-napthylamine (Pro-MNA) using methods known to the art (E. Wünsch, Synthese von Peptiden, in Methoden der organischen Chemie, Houben-Weyl (Eds. E. Müller, 0. Bayer), Vol. XV, Part 1 and 2, Georg Thieme Verlag, Stuttgart, 1974). The turnover and cleavage rate have been determined with the aid pf the following assay:
Assay for Cleavage of MNA Substrates by FAP:
Cell extract from 293 cells stably transfected with FAP prepared as described (see Park, et al., Fibroblast Activation Protein, a Dual Specificity Serine Protease expressed in human tumor stromal fibroblasts. (1999) J. Biol. Chem. 36505-12.). A similar extract was also prepared from parental 293 control cells without FAP. The FAP concentration in the FAP-transfected cell extract was estimated by immunoassay and 1 ng enzyme (diluted in buffer A) was used per assay. FAP-negative 293 control cell extract was used at the same dilution (also in buffer A) as a negative control. Substrate was initially dissolved in dimethylformamide at a concentration of 200 mM and diluted in buffer A to a final concentration of 2.5 mM. A few substrates were not soluble at this concentration and had to be diluted further.
10 μl 10% DMSO in buffer A
70 μl diluted FAP cell extract containing 1 ng FAP enzyme (OR control 293 cell extract without FAP)
Mix, incubate at room temperature for 1 hour, and measure fluorescence in Fluorostar fluorimeter at the following wavelengths:
MNA conjugates: Excitation: 355 nm, Emission: 405 nm.
The fluorescence measured in the samples treated with control 293 control cell extracts without FAP is subtracted from the values measured in the samples treated with 1 ng FAP enzyme.

| Substance | % Turnover (FAP) [%] | Cleavage (FAP) [µM] | cleavage of dipeptide coumarin substrate (FAPα dimers) |
| --- | --- | --- | --- |
| Ala-Pro-7-amino-4-trifluoromethyl coumarin | – | – | able to cleave |
| Pyridin-3-ylmethoxycarbonyl-Pro-Ala-Gly-Pro-MNA ({pyridin‑3‑ylmethoxycarbonyl}-PAGP-{NH(4-MeO-2-naphthyl)}) | 1.77 | 8.86 | – |
| 4-Pyridylmethyloxycarbonyl-Gly-Pro-MNA | 1.18 | 5.92 | – |
| 4-Fluorphenylacetyl-Gly-Pro-MNA | 0.42 | 2.08 | – |
| Pyrid-3-ylmethyloxycarbonyl-2-Aze-Ala-Gly-Pro-MNA | 3.42 | 17.1 | – |
| Lys-Pro-7-amino-4-trifluoromethyl coumarin | – | – | able to cleave |
| Pyrid-3-ylmethyloxycarbonyl-Pip-Ala-Gly-Pro-MNA | 0.56 | 2.78 | – |
| Pyrid-4-ylmethyloxycarbonyl-Pip-Ala-Gly-Pro-MNA | 0.43 | 2.16 | – |
| 3-Fluorphenylacetyl-Gly-Pro-MNA | 0.35 | 1.77 | – |
| 4-Aminomethylphenylacetyl-Pro-Ala-Gly-Pro-MNA ({4‑aminomethylphenylacetyl}-PAGP-{NH(4-MeO-2-naphthyl)}) | 0.26 | 1.28 | – |
| Succinyl-Pro-Ala-Gly-Pro-MNA (Suc-PAGP-{NH(4-MeO-2-naphthyl)}; SMILES COc1cc(NC(=O)[C@@H]2CCCN2C(=O)CNC(=O)[C@H](C)NC(=O)[C@@H]2CCCN2C(=O)CCC(=O)O)cc2ccccc12) | 0.29 | 1.44 | – |
| Malonyl-Pro-Ala-Gly-Pro-MNA (malonyl-PAGP-{NH(4-MeO-2-naphthyl)}) | 0.21 | 1.05 | – |
| 3-Pyridylacetyl-Gly-Pro-MNA | 1.82 | 9.12 | – |
| Gly-Pro-7-amino-4-trifluoromethyl coumarin | – | – | able to cleave |
| Pyrid-3-ylmethyloxycarbonyl-MeAla-Ala-Gly-Pro-MNA ({pyrid‑3‑ylmethyloxycarbonyl}-[NMeA]AGP-{NH(4-MeO-2-naphthyl)}) [MeAla represents a N-methylalanin moiety] | 1.27 | 6.31 | – |

Second part, led by results:

| % Turnover (FAP) [%] | Cleavage (FAP) [µM] | Substance | cleavage of dipeptide coumarin substrate (FAPα dimers) |
| --- | --- | --- | --- |
| 0.56 | 0.7 | Prazin-2-ylcarbonyl-Pro-Ala-Gly-Pro-MNA ({pyrazin‑2‑ylcarbonyl}-PAGP-{NH(4-MeO-2-naphthyl)}) | – |
| 1.61 | 8.07 | Pyrid-4-ylmethyloxycarbonyl-2-Aze-Ala-Gly-Pro-MNA | – |
| 0.58 | 2.88 | 3-Carboxyphenylsulfonyl-Pro-Ala-Gly-Pro-MNA ({3‑carboxyphenylsulfonyl}-PAGP-{NH(4-MeO-2-naphthyl)}) | – |
| 0.65 | 3.25 | Morpholino-(ethyloxycarbonyl)-Pro-Ala-Gly-Pro-MNA ({morpholino‑(ethyloxycarbonyl)}-PAGP-{NH(4-MeO-2-naphthyl)}; SMILES COc1cc(NC(=O)[C@@H]2CCCN2C(=O)CNC(=O)[C@H](C)NC(=O)[C@@H]2CCCN2C(=O)OCCN2CCOCC2)cc2ccccc12) | – |
| 0.72 | 3.58 | 3 -Pyridylmethyloxycarbonyl-Gly-Pro-MNA | – |
| 0.37 | 1.85 | 4-Dimethylaminobenzoyl-Pro-Ala-Gly-Pro-MNA ({4‑dimethylaminobenzoyl}-PAGP-{NH(4-MeO-2-naphthyl)}) | – |
| 0.3 | 1.48 | Glutaryl-Pro-Ala-Gly-Pro-MNA (Glutaryl-PAGP-{NH(4-MeO-2-naphthyl)}; SMILES COc1cc(NC(=O)[C@@H]2CCCN2C(=O)CNC(=O)[C@H](C)NC(=O)[C@@H]2CCCN2C(=O)CCCC(=O)O)cc2ccccc12) | – |
| 0.6 | 2.99 | Morpholino-carbonyl-Pro-Ala-Gly-Pro-MNA ({morpholino‑carbonyl}-PAGP-{NH(4-MeO-2-naphthyl)}) | – |
| 0.24 | 1.21 | 4-Aminomethylbenzoyl-Pro-Ala-Gly-Pro-MNA ([4Amb]PAGP-{NH(4-MeO-2-naphthyl)}) | – |
| 0.39 | 1.94 | 4-(2-Aminothiazol-5-yl)-acetyl-Pro-Ala-Gly-Pro-MNA ({(2-aminothiazol-5-yl)‑acetyl}-PAGP-{NH(4-MeO-2-naphthyl)}) | – |
| 0.26 | 1.28 | 2-Fluorphenylacetyl-Gly-Pro-MNA | – |
| 2.26 | 2.26 | 3,5-Difluorphenylacetyl-Gly-Pro-MNA | – |
| 0.26 | 0.64 | 2-Morpholino-ethyl-Pro-Ala-Gly-Pro-MNA ({2‑morpholino‑ethyl}-PAGP-{NH(4-MeO-2-naphthyl)}) | – |
| 1.28 | 6.38 | 4-Pyridylmethyloxycarbonyl-Pro-Ala-Gly-Pro-MNA ({4‑pyridylmethyloxycarbonyl}-PAGP-{NH(4-MeO-2-naphthyl)}) | – |
| 0.69 | 1.72 | 4-Hydroxyphenylacetyl-Pro-Ala-Gly-Pro-MNA ({4‑hydroxyphenylacetyl}-PAGP-{NH(4-MeO-2-naphthyl)}) | – |
| 0.13 | 0.33 | 1-Methylpyrrol-2-ylcarbonyl Pro-Ala-Gly-Pro-MNA ({1‑methylpyrrol‑2‑ylcarbonyl}-PAGP-{NH(4-MeO-2-naphthyl)}) | – |
| 0.6 | 3 | 4-Amino-Phenylacetyl-Gly-Pro-MNA | – |
